Source: publication PMC12802937
Each block holds one substance with its values, some of them ahead of it.

How the values were obtained:
[1] = target: Lge1-CT D287K (budding yeast) (UniProt Q02796); experiment: SPR; Lge1-CT immobilised on a CM5 chip, Bre1-LR flown over; Biacore 8K, 25°C, 20 mM HEPES (pH 7.5), 200 mM sodium chloride, 0.02% Tween 20
[2] = target: Lge1-CT D312K (budding yeast) (UniProt Q02796); experiment: as above
[3] = target: Lge1-CT E278K/E282K (budding yeast) (UniProt Q02796); experiment: as above
[4] = target: Lge1-CT (Lge1 residues 261–332), intein-chitin binding domain (CBD) tag construct (budding yeast) (UniProt Q02796); experiment: as above
[5] = target: Bre1-LR I397K (budding yeast) (UniProt Q07457); experiment: ITC; Lge1-CT (50–60 μM) injected into Bre1-LR (15 μM); 25°C, 20 mM TRIS (pH 7.5), 200 mM sodium chloride
[6] = target: Bre1-LR K506E/K510E (budding yeast) (UniProt Q07457); experiment: as above
[7] = target: Bre1-LR K506E/K510E (budding yeast) (UniProt Q07457); experiment: ITC; Lge1-CT (50–60 μM) injected into Bre1-LR (15 μM); 25°C, 20 mM TRIS (pH 7.5), 300 mM sodium chloride

- Kd [1]: 145 nM
- Kd [2]: 25.3 nM
- Kd [3]: 95.6 nM
Substance: Bre1-LR (Bre1 residues 227–700, LBD and RING domains), 6× histidine tag (from UniProt Q07457 227-700) (domain or fragment)

- Kd [4]: 75.5 nM
Substance: Bre1-LR D389K/D390K (from UniProt Q07457 227-700) (domain or fragment)

- Kd [4]: 40.7 nM
Substance: Bre1-LR I397K (from UniProt Q07457 227-700) (domain or fragment)

- Kd [5]: 122 nM
- dH [5]: -41.3 kcal/mol
- stoichiometry N [5]: 0.18
- Kd [6]: 41.9 nM
- dH [6]: -35.2 kcal/mol
- stoichiometry N [6]: 0.383
- Kd [7]: 6720 nM
- dH [7]: -80 kcal/mol
- stoichiometry N [7]: 0.474
Substance: Lge1-CT (Lge1 residues 261–332), intein-chitin binding domain (CBD) tag construct (from UniProt Q02796 261-332) (domain or fragment)
